Experimental data published in patent EP1834963A1, “Di-polymer protein conjugates and processes for their preparation” (priority 2006, dated 2007).

How the values were obtained:
[1] = in vivo clearance (pharmacokinetic) studies in sham-operated and nephrectomised rats; conditions: intravenous 0.005 mg/kg; for clearance mechanism: sham-operated and nephrectomised rats, inferred from similar kinetics
Experimental: The clearance mechanism of (i) the Di-PEG G-CSF product mixture (43 kDa total MW) comprising di-PEG 12kDa G-CSF and […] isoforms according to example A6 and of (ii) the single isoform, Di'-PEG 20kDa G-CSF conjugate (59 kDa total MW) according to example B, was tested in vivo in comparison to commercially available mono-pegylated G-CSF (Neulasta®)
The in vivo studies were open randomized, parallel- grouped clearance studies of Neulasta® with either the Di-PEG G-CSF product mixture or the single di'-PEG 20kDa G-CSF conjugate isoform in sham-operated (control group) and nephrectomised rats. The studies were carried out by intravenous injection of 0.005 mg/kg of the conjugate to male rats. Four animals per group per time point were subjected to bleeding. The remaining G-CSF plasma concentration was determined in the serum samples and relevant pharmacokinetic data such as the plasma elimination half-life were calculated.

male rats [2] = experiment: in vivo single dose biocomparability study of di-PEG G-CSF product with Neupogen and Neulasta (WBC and neutrophil counts); conditions: single subcutaneous injection 0.1 mg/kg
Experimental: The di-PEG G-CSF product comprising a mixture of di- and di' PEG G-CSF conjugate isoforms according to the invention was tested in vivo, to show the improved activity versus unmodified G-CSF (Neupogen®) and to compare its biological activity with commercially available mono-pegylated G-CSF (Neulasta®).
The in vivo study was an open randomized, parallel- grouped single dose biocomparability study of Neupogen® and Neulasta® with the di-PEG G-CSF product. It was carried out by subcutaneously injecting 0.1 mg/kg to male rats. Six animals per group per time point were subjected to bleeding. Serum samples were subjected to a complete blood count on the same day that the samples were collected. The average white blood cell counts and neutrophil counts were calculated.

male rats [3] = experiment: in vivo single dose biocomparability study of Di'-PEG 20kDa G-CSF isoform with Neupogen and Neulasta (WBC and neutrophil counts); conditions: single subcutaneous injection 0.1 mg/kg; for average white blood cell counts (WBC) and WBC response: Figure 14; for average neutrophil counts and neutrophil response: Figure 15
Experimental: For testing the biological activity of the Di'-PEG 20kDa G-CSF conjugate isoform in vivo, the single isoform was highly purified by preparative cation exchange chromatography. The defined product contained at least 95% di'-PEG G-CSF conjugate isoform as described in example A 6, paragraph d)ii). The in vivo study was an open randomized, parallel- grouped single dose biocomparability study of Neupogen® and Neulasta® with the single di'-PEG G-CSF conjugate isoform. It was carried out by subcutaneously injecting 0.1 mg/kg to male rats. Six animals per group per time point were subjected to bleeding. Serum samples were subjected to a complete blood count on the same day that the samples were collected. The average white blood cell counts and neutrophil counts were calculated.

[4] = NE - nephrectomised rats, PK study Neulasta vs Di-PEG 12kDa G-CSF mixture
[5] = SH - sham operated rats, PK study Neulasta vs Di-PEG 12kDa G-CSF mixture
[6] = NE - nephrectomised rats, PK study Neulasta vs Di'-PEG 20kDa G-CSF isoform
[7] = SH - sham operated rats, PK study Neulasta vs Di'-PEG 20kDa G-CSF isoform
[8] = compared to unmodified G-CSF (Neupogen®)

B1: Di-PEG 12kDa G-CSF mixture (conjugate, UniProt P09919 31-207, looked up)
Granulocyte …: TPLGPASSLPQSFLLKCLEQVRKIQGDGAALQEKLVSECATYKLCHPEELVLLGHSLGIPWAPLSSCPSQALQLAGCLSQLHSGLFLYQGLLQALEGISPELGPTLDTLQLDVADFATTIWQQMEELGMAPALQPTQGAMPAFASAFQRRAGGVLVASHLQSFLEVSYRVLRHLAQP
modifications: two 12 kDa PEG chains
**Q.** Which results are given for B1?
**A.** Elimination half-life [1, 4]: 3.4 h; Elimination half-life [1, 5]: 2.9 h; clearance mechanism [1]: predominantly cleared by Neutrophil Receptor-mediated clearance; average white blood cell counts (WBC) (male rats [2]; compared to Neulasta®, Figure 8): at least biosimilar, perhaps potentially better, because of slightly higher maximum WBC and neutrophil counts; average neutrophil counts (male rats [2]; compared to Neulasta®, Figure 9): at least biosimilar, perhaps potentially better, because of slightly higher maximum WBC and neutrophil counts; average white blood cell counts (WBC) and WBC response (male rats [2]; compared to unmodified G-CSF (Neupogen®), Figure 8): higher WBC and neutrophil counts and longer sustained WBC and neutrophil response; average neutrophil counts and neutrophil response (male rats [2]; compared to unmodified G-CSF (Neupogen®), Figure 9): higher WBC and neutrophil counts and longer sustained WBC and neutrophil response

B2: Neulasta (conjugate, UniProt P09919 31-207, looked up)
Granulocyte …: B1 Granulocyte …
modifications: pegfilgrastim; N-terminal Met, 20 kDa PEG
**Q.** For B2, which Elimination half-life [1, 6] is on record?
**A.** 2.1 h

**Q.** What about the Elimination half-life [1, 4] of the same molecule?
**A.** 2.5 h

**Q.** And the Elimination half-life [1, 7]?
**A.** 1.9 h

**Q.** What about the Elimination half-life [1, 5] of the same molecule?
**A.** 1.9 h

**Q.** And the clearance mechanism [1]?
**A.** predominantly cleared by Neutrophil Receptor-mediated clearance

B3: Di'-PEG 20kDa G-CSF isoform (conjugate, UniProt P09919 31-207, looked up)
Granulocyte …: B1 Granulocyte …
modifications: two 20 kDa PEG chains
**Q.** Which “average white blood cell counts (WBC) and WBC response” value (male rats [3]; compared to Neulasta®) does the source give for B3 here?
**A.** bioimproved because of higher maximum WBC and neutrophil counts and its sustained WBC and neutrophil response

**Q.** What about the “average neutrophil counts and neutrophil response” value (male rats [3]; compared to Neulasta®) of the same molecule?
**A.** bioimproved because of higher maximum WBC and neutrophil counts and its sustained WBC and neutrophil response

**Q.** What about the “average white blood cell counts (WBC) and WBC response” value (male rats [3]; [8]) of the same molecule?
**A.** i) higher WBC and neutrophil counts and ii) showed a sustained WBC and neutrophil response

**Q.** What about the “average neutrophil counts and neutrophil response” value (male rats [3]; [8]) of the same molecule?
**A.** i) higher WBC and neutrophil counts and ii) showed a sustained WBC and neutrophil response

**Q.** And the Elimination half-life [1, 6]?
**A.** 3.7 h

**Q.** What about the Elimination half-life [1, 7] of the same molecule?
**A.** 3.3 h

**Q.** What about the clearance mechanism [1] of the same molecule?
**A.** predominantly cleared by Neutrophil Receptor-mediated clearance
